Experiment in all cases: FP competition against fluorescent dimeric probe, Ki from IC50
The target in experiment [1] is T1, PDZ1-2 of PSD-95 (postsynaptic density protein-95) (UniProt P78352 61-249, limits assumed).
T1 construct: domain: PDZ1-2; also called PSD-95 PDZ1-2; PSD-95 PDZ12

The target of experiment [2] is T1, PDZ1-2 of PSD-95 (postsynaptic density …). The source holds these as a separate data set.
Experiment [3] shares this target. The source holds these as a separate data set.
Experiment [4] shares this target. The source holds these as a separate data set.

Like-named read-outs stand apart in the source and are kept apart here. No end group written: not given here. OPEG4 = PEG4 linker (Xa = -O-, formula XXVI) joining two peptide copies; NPEG4 = not defined here

From US20240245793A1 (UNIVERSITY OF COPENHAGEN, published 2024) come the findings set out here.

T1 sequence (P78352 61-249 limits assumed): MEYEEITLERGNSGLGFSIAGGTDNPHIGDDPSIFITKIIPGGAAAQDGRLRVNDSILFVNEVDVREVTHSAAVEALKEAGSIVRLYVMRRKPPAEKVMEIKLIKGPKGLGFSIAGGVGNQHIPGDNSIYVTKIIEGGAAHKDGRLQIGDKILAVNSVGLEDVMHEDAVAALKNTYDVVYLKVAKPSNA

B1: compound 27, NPEG4-(KETVV)2 fused to L-Arg9 (Ac-RRRRRRRRR-) (peptide)
peptide: KETVV
chain: Ac-RRRRRRRRR
modifications: not fully specified (N-terminus, C-terminus); also: dimer: two copies bridged at N-termini by NPEG4, Arg9 C-terminus on NPEG4 nitrogen
notes: Branched compound CPP-NPEG4-(P1)(P2), formula (XXVIII); also called formula (XIX)
What is called Ki is the equilibrium dissociation constant of an inhibitor or competing ligand from its target. The low end stands for a stronger hold on the target, the high end for a looser hold on the target. The molecule B1 registered an inhibition constant Ki in experiment [1] of 6.3 nM.

B2: compound 25, NPEG4-(KETTV)2 fused to L-Arg9 (Ac-RRRRRRRRR-) (peptide)
peptide: KETTV
chain: Ac-RRRRRRRRR
modifications: not fully specified (N-terminus, C-terminus); also: dimer: two copies bridged at N-termini by NPEG4, Arg9 C-terminus on NPEG4 nitrogen
notes: Branched compound CPP-NPEG4-(P1)(P2), formula (XXVIII); also called formula (XVIII)
With B2, the Ki in experiment [1] is 5.6 nM.

B3: compound 29, NPEG4-(KETRV)2 fused to L-Arg9 (Ac-RRRRRRRRR-) (peptide)
peptide: KETRV
chain: Ac-RRRRRRRRR
modifications: not fully specified (N-terminus, C-terminus); also: dimer: two copies bridged at N-termini by NPEG4, Arg9 C-terminus on NPEG4 nitrogen
notes: Branched compound CPP-NPEG4-(P1)(P2), formula (XXVIII); also called formula (XX)
Take B3: the affinity in experiment [1], expressed as Ki, was 10.1 nM.

B4: compound 33, NPEG4-(VETVV)2 fused to L-Arg9 (Ac-RRRRRRRRR-) (peptide)
peptide: VETVV
chain: Ac-RRRRRRRRR
modifications: not fully specified (N-terminus, C-terminus); also: dimer: two copies bridged at N-termini by NPEG4, Arg9 C-terminus on NPEG4 nitrogen
notes: also called formula (XXII)
Consider B4, for which the Ki in experiment [1] came out at 19.9 nM.

B5: compound 52, NPEG4-(IETDV)2 fused to L-pVEC (Ac-LLIILRRRIRKQAHAHSK-) (peptide)
peptide: NPEG4-IETDV
chain: Ac-LLIILRRRIRKQAHAHSK-NPEG4
modifications: reading uncertain; also: two IETDV copies joined at their N-termini by the NPEG4 linker, CPP C-terminus linked to the NPEG4 nitrogen, printed as NPEG4-(IETDV)2 fused to L-pVEC (Ac-LLIILRRRIRKQAHAHSK-)
notes: Branched compound CPP-NPEG4-(P1)(P2), formula (XXVIII)
In experiment [2], B5 displayed a Ki of 13.3 nM.

B6: compound 67, NPEG4-(KETLV)2 fused to L-Arg7 (Ac-RRRRRRR-) (peptide)
peptide: NPEG4-KETLV
chain: Ac-RRRRRRR-NPEG4
modifications: reading uncertain; also: two KETLV copies joined at their N-termini by the NPEG4 linker, CPP C-terminus linked to the NPEG4 nitrogen, printed as NPEG4-(KETLV)2 fused to L-Arg7 (Ac-RRRRRRR-)
notes: as for B5
Regarding B6, in experiment [3], affinity was put at a Ki of 5.8 nM.

B7: compound 50, NPEG4-(IETDV)2 fused to L-DPV3 (Ac-RKKRRRESRKKRRRES-) (peptide)
peptide: NPEG4-IETDV
chain: Ac-RKKRRRESRKKRRRES-NPEG4
modifications: reading uncertain; also: two IETDV copies joined at their N-termini by the NPEG4 linker, CPP C-terminus linked to the NPEG4 nitrogen, printed as NPEG4-(IETDV)2 fused to L-DPV3 (Ac-RKKRRRESRKKRRRES-)
notes: as for B5
The molecule B7 gave a Ki in experiment [2] of 16.6 nM. That is a double-digit nanomolar value.

B8: compound 31, NPEG4-(ISTDV)2 fused to L-Arg9 (Ac-RRRRRRRRR-) (peptide)
peptide: ISTDV
chain: Ac-RRRRRRRRR
modifications: not fully specified (N-terminus, C-terminus); also: dimer: two copies bridged at N-termini by NPEG4, Arg9 C-terminus on NPEG4 nitrogen
notes: Branched compound CPP-NPEG4-(P1)(P2), formula (XXVIII); also called formula (XXI)
B8: the affinity in experiment [1], expressed as Ki, was 62.3 nM.

B9: compound 6, OPEG4-(ISTDV)2 (peptide)
peptide: OPEG4-ISTDV
modifications: also: dimer: two ISTDV copies joined at their N-termini by the OPEG4 linker
notes: Dimer of formula (XXXIII), P1 = P2, no CPP
In turn, B9 registered a Ki in experiment [4] of 53.1 nM. That is a double-digit nanomolar value.

B10: compound 71, NPEG4-(KETLV)2 fused to L-Arg5 (Ac-RRRRR-) (peptide)
peptide: NPEG4-KETLV
chain: Ac-RRRRR-NPEG4
modifications: reading uncertain; also: two KETLV copies joined at their N-termini by the NPEG4 linker, CPP C-terminus linked to the NPEG4 nitrogen, printed as NPEG4-(KETLV)2 fused to L-Arg5 (Ac-RRRRR-)
notes: as for B5
As to B10, in experiment [3], affinity was put at a Ki of 10.9 nM.

B11: compound 73, NPEG4-(KETLV)2 fused to L-Arg4 (Ac-RRRR-) (peptide)
peptide: NPEG4-KETLV
chain: Ac-RRRR-NPEG4
modifications: reading uncertain; also: two KETLV copies joined at their N-termini by the NPEG4 linker, CPP C-terminus linked to the NPEG4 nitrogen, printed as NPEG4-(KETLV)2 fused to L-Arg4 (Ac-RRRR-)
Molecule B11 showed a Ki in experiment [3] of 11.1 nM.

B12: compound 4, OPEG4-(KETVV)2 (peptide)
peptide: OPEG4-KETVV
modifications: also: dimer: two copies bridged at N-termini by OPEG4
notes: Dimer of formula (XXXI), P1 = P2, no CPP
In experiment [4], B12 registered a Ki of 15.8 nM.

B13: compound 7, OPEG4-(VETVV)2 (peptide)
peptide: OPEG4-VETVV
modifications: also: dimer: two VETVV copies joined at their N-termini by the OPEG4 linker
notes: Dimer of formula (XXXIV), P1 = P2, no CPP
For B13, in experiment [4], the Ki is 17 nM.

B14: compound 2, OPEG4-(KETLV)2 (peptide)
peptide: OPEG4-KETLV
modifications: also: dimer: two copies bridged at N-termini by OPEG4
notes: Dimer of formula (XXIX), P1 = P2, no CPP
Regarding B14, the affinity in experiment [4] corresponds to a Ki of 11.1 nM.

B15: compound 5, OPEG4-(KETRV)2 (peptide)
peptide: OPEG4-KETRV
modifications: also: dimer: two KETRV copies joined at their N-termini by the OPEG4 linker
notes: Dimer of formula (XXXII), P1 = P2, no CPP
In experiment [4], B15 had a Ki of 53.2 nM.
